In paper PMC3005033 one finds percent of GluA2 left in the unbound fraction after IP with GluA1 antibody, percent of GluA1 removed by IP with GluA2/3+GluA4 antibodies and percent of GluA1 complexed with GluA2 (the paper's estimate) data, which are given here for 2 substances.

Where two headings read alike, the source gives them in different places. Bounds are passed on as bounds.

Common to all, as to test: co-IP
Test [1] concerns the target AMPA receptor subunit GluA1 (rat (endogenous in adult Sprague-Dawley rat brain)) (UniProt P19490).
The target is the same in test [2]. The source holds these as a separate data set.
The target is the same in test [3]. This is another data set of the same source.
The target is the same in test [4]. The source holds these as a separate data set.
Test [5] addresses GluA2/3+GluA4 (rat (endogenous in adult Sprague-Dawley rat brain)).
For test [6], the target named is AMPA receptor subunit GluA2 (rat (endogenous in adult Sprague-Dawley rat brain)) (UniProt P19491).
Chain of AMPA receptor subunit GluA2 (rat (endogenous in adult Sprague-Dawley rat brain)) (P19491 22-883): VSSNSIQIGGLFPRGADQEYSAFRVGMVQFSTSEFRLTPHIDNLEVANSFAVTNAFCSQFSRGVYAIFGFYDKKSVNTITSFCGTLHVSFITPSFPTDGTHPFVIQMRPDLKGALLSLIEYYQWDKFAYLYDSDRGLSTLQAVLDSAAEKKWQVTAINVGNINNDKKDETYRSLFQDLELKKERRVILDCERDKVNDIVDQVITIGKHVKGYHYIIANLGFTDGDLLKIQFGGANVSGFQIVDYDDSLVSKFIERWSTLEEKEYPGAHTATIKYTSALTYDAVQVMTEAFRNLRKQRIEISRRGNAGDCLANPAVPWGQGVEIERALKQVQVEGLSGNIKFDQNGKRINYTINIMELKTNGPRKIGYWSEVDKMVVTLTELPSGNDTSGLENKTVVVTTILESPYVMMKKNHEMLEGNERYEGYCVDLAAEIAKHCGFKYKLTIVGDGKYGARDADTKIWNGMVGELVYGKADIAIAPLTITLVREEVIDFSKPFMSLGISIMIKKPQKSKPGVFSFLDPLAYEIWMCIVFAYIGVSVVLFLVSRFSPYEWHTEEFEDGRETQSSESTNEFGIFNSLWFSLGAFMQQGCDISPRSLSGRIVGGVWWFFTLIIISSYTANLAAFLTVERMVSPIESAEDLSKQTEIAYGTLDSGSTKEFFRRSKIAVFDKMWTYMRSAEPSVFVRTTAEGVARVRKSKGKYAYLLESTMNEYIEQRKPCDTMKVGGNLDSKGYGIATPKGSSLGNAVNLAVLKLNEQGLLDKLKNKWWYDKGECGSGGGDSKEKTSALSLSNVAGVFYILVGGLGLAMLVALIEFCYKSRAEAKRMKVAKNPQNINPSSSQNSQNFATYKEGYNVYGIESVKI
Test [7] shares this target. The source holds these as a separate data set.

Chain of AMPA receptor subunit GluA2 (P19491 22-883): as above
Chain of AMPA receptor subunit GluA1 (rat (endogenous in adult Sprague-Dawley rat brain)) (P19490 19-907): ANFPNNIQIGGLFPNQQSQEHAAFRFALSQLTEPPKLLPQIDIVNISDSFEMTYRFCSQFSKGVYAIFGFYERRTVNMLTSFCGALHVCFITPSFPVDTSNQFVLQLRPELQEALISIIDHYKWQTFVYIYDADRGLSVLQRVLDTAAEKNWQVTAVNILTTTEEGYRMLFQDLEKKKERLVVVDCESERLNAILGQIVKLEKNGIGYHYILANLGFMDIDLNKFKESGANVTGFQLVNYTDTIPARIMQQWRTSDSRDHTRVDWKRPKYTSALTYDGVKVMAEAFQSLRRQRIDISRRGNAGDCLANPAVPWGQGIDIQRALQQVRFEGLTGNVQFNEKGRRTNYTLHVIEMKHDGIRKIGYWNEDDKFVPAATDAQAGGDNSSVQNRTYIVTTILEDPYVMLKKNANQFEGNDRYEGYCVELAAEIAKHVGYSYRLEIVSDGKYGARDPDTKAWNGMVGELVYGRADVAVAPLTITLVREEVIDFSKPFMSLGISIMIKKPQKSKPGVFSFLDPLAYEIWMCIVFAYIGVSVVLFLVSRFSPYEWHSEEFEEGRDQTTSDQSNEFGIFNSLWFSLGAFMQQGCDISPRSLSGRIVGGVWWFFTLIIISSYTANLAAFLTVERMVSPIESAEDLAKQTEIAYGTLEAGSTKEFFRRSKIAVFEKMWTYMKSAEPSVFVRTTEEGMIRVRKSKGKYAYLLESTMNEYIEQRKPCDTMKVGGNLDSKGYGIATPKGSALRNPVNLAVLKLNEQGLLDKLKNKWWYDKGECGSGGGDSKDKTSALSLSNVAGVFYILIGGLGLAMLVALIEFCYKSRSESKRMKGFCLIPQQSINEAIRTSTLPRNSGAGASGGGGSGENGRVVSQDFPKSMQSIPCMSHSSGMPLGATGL
Chain of AMPA receptor subunit GluA1 (P19490 19-907): as above

For the substance “AMPA receptor subunit GluA2 (from UniProt P19491 22-883)”, the percent of GluA2 left in the unbound fraction after IP with GluA1 antibody in test [1] stood at 55%; in test [2], 65%; in test [3], 53%; in test [4], 62%.

In the case of “AMPA receptor subunit GluA1 (from UniProt P19490 19-907)”, the percent of GluA1 removed by IP with GluA2/3+GluA4 antibodies in test [5] stood at 93%. The percent of GluA1 complexed with GluA2 (the paper's estimate) in test [6] and in test [7] was greater than 80% in each case.
